# Changes are numbered by the printed parent chain. Names may count otherwise.
# T1: human FcγRIIb (human, UniProt P31994 43-217, limits assumed)
# T1 construct: also called FcgRIIb; hFcgRIIb
# T1 sequence: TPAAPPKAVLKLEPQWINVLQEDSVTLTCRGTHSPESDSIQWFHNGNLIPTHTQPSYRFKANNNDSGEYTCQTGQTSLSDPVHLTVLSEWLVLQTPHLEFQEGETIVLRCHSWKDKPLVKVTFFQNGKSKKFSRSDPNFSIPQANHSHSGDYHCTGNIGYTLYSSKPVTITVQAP
# T2: human FcγRIIa(H) (human, UniProt P12318 36-217)
# T2 construct: also called FcgRIIaH; hFcgRIIa(H)
# T2 sequence: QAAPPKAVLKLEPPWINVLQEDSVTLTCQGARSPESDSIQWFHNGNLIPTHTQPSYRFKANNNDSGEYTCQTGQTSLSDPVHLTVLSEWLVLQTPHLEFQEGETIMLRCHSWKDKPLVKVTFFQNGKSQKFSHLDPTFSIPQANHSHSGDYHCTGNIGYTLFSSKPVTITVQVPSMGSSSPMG
# T3: human FcγRIIa(R) (human, UniProt P12318 36-217)
# T3 construct: also called FcgRIIaR; hFcgRIIa(R)
# T3 chain: T2 sequence with H133R
# B1: GpH7-B3 P329K/GpL16-k0 (antibody, human IgG1)
# heavy: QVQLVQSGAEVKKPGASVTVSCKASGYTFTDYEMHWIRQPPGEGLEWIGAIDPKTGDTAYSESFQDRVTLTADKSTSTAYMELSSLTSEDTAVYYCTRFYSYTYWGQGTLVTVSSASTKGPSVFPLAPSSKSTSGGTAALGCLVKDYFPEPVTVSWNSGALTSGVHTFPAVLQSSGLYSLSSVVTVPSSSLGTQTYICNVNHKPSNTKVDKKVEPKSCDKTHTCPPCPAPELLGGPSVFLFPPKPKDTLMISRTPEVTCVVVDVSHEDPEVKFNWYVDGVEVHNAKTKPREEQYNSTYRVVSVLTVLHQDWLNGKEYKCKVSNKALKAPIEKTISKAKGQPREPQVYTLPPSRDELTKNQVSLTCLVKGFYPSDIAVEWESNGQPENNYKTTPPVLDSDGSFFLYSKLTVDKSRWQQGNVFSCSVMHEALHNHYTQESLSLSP
# light: DIVMTQSPLSLPVTPGEPASISCQASESLVHSNRNTYLHWYLQKPGQSPQLLIYKVSNRFSGVPDRFSGSGSGTDFTLKISRVEAEDVGVYYCSQNTHVPPTFGQGTKVEIE
# notes: B3 variant; copies: 2 + 2
# B2: GpH7-B3 A327V/GpL16-k0 (antibody, human IgG1)
# heavy: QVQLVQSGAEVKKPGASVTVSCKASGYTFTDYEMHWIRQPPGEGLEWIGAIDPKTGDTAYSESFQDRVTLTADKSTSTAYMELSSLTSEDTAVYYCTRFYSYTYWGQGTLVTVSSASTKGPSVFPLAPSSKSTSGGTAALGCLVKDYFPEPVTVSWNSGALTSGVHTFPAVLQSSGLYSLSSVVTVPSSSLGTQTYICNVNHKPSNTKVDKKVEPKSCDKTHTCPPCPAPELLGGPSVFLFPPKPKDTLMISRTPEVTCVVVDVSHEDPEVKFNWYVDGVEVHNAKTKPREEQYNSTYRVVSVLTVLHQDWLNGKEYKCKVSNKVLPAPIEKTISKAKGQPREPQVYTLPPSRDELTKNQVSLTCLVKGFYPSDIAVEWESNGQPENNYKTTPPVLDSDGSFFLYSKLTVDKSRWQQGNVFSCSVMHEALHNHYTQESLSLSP
# light: B1 light
# notes: B3 variant; copies: 2 + 2
# B3: GpH7-B3 A327P/GpL16-k0 (antibody, human IgG1)
# heavy: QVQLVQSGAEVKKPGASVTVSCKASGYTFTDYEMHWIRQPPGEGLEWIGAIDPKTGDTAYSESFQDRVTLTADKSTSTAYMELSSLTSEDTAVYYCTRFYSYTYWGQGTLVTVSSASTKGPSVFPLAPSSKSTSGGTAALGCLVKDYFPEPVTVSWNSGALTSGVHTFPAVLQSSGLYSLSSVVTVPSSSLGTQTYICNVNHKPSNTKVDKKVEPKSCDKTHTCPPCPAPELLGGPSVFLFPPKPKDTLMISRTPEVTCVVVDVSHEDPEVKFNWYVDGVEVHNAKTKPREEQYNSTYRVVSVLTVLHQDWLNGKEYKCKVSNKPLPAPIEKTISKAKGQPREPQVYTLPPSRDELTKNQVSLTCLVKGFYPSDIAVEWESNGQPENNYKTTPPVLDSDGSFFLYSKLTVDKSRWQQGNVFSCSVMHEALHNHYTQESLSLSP
# light: B1 light
# notes: B3 variant; copies: 2 + 2
# B4: GpH7-B3 A327R/GpL16-k0 (antibody, human IgG1)
# heavy: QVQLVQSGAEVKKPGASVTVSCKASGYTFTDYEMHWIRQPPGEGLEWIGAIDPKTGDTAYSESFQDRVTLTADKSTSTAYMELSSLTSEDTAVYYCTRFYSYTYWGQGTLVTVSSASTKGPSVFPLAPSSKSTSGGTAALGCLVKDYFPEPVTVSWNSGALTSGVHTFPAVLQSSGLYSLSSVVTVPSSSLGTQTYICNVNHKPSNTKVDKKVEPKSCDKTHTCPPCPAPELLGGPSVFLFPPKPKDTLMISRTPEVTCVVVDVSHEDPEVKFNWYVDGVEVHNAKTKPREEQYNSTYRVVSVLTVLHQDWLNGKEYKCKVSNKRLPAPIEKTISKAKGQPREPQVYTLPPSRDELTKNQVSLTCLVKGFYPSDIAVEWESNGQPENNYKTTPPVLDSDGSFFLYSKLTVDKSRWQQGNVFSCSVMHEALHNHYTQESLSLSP
# light: B1 light
# notes: B3 variant; copies: 2 + 2
# B5: GpH7-B3 A327Y/GpL16-k0 (antibody, human IgG1)
# heavy: not shown
# light: B1 light
# notes: B3 variant; copies: 2 + 2
# B6: GpH7-B3 N325I/GpL16-k0 (antibody, human IgG1)
# heavy: not shown
# light: B1 light
# notes: B3 variant; copies: 2 + 2
# B7: GpH7-B3 A327W/GpL16-k0 (antibody, human IgG1)
# heavy: not shown
# light: B1 light
# notes: B3 variant; copies: 2 + 2
# B8: GpH7-B3 A327L/GpL16-k0 (antibody, human IgG1)
# heavy: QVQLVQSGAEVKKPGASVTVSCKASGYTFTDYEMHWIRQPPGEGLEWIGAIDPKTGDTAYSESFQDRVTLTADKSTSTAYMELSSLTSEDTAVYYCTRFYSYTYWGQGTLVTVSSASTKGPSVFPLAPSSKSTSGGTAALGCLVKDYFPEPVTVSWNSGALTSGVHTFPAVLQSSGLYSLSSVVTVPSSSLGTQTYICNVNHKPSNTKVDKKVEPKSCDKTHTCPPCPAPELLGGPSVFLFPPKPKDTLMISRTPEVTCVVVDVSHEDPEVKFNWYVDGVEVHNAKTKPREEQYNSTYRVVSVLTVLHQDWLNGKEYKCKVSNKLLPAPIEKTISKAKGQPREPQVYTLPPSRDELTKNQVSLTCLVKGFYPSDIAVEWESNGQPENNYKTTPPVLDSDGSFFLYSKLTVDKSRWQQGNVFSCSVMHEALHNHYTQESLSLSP
# light: B1 light
# notes: B3 variant; copies: 2 + 2
# B9: GpH7-B3 A327S/GpL16-k0 (antibody, human IgG1)
# heavy: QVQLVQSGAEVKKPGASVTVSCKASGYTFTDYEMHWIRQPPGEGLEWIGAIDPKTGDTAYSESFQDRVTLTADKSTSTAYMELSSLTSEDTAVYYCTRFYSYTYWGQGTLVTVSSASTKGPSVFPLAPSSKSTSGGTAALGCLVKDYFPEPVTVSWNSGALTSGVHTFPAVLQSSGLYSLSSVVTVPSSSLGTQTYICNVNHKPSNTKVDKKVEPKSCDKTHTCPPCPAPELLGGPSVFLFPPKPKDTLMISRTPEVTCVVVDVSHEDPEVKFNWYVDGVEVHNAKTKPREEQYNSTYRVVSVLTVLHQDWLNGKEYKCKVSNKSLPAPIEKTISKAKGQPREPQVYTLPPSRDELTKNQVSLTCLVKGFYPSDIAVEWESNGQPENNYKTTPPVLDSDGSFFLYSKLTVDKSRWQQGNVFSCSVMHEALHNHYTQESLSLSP
# light: B1 light
# notes: B3 variant; copies: 2 + 2
# B10: GpH7-B3 A327M/GpL16-k0 (antibody, human IgG1)
# heavy: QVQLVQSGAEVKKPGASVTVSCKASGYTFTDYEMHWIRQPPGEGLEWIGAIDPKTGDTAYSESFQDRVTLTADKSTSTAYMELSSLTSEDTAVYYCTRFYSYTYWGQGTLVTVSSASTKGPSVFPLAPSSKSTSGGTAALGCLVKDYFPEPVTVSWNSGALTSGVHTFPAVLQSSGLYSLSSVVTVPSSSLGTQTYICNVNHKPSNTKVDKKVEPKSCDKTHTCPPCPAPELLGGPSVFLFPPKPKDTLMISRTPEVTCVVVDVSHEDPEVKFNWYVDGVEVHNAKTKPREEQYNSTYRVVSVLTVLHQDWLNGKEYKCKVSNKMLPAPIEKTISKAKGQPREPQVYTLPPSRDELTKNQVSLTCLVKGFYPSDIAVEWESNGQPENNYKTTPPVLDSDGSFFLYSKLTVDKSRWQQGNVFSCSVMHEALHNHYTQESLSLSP
# light: B1 light
# notes: B3 variant; copies: 2 + 2
# B11: GpH7-B3 A327Q/GpL16-k0 (antibody, human IgG1)
# heavy: not shown
# light: B1 light
# notes: B3 variant; copies: 2 + 2
# B12: GpH7-B3 A327K/GpL16-k0 (antibody, human IgG1)
# heavy: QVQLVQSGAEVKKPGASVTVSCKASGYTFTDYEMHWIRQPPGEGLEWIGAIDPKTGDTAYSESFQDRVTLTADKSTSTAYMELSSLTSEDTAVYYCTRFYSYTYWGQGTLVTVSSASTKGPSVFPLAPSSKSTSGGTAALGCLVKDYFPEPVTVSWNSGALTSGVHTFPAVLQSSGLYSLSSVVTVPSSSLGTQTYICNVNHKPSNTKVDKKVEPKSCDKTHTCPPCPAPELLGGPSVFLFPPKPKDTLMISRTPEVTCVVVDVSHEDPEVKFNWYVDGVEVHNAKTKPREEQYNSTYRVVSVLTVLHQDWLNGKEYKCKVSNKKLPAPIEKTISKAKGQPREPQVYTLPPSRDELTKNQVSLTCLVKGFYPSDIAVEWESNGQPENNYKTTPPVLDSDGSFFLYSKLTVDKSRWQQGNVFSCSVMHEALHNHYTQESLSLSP
# light: B1 light
# notes: B3 variant; copies: 2 + 2
# B13: GpH7-B3 S298W/GpL16-k0 (antibody, human IgG1)
# heavy: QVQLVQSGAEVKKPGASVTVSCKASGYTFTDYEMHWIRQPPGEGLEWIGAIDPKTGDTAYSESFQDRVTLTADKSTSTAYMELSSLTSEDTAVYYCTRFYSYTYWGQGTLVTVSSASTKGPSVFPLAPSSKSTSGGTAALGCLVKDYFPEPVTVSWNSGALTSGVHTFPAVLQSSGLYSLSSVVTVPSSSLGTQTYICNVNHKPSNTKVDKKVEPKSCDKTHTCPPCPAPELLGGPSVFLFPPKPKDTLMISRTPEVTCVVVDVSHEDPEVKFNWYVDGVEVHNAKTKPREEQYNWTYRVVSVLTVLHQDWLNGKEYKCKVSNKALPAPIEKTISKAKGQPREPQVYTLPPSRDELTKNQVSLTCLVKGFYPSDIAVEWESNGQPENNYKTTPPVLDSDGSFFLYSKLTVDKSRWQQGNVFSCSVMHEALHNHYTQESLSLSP
# light: B1 light
# notes: B3 variant; copies: 2 + 2
# B14: GpH7-B3 A330P/GpL16-k0 (antibody, human IgG1)
# heavy: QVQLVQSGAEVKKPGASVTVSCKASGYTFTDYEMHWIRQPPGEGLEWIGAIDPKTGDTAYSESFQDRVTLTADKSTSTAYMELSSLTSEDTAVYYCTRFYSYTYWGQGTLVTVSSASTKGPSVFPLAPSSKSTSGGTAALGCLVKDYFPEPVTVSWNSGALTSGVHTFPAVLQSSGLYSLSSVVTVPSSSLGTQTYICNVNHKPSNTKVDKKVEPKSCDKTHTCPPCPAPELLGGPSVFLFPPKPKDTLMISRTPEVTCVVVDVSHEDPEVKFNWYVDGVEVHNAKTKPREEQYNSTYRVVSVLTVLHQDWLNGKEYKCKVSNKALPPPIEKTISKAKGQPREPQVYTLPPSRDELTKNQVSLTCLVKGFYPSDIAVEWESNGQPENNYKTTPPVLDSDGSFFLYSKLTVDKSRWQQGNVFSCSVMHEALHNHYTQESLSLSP
# light: B1 light
# notes: B3 variant; copies: 2 + 2
# Biological target: T4, human FcγRIa (human, UniProt P12314 16-292, limits assumed)
# T4 construct: also called FcgRIa; hFcgRIa
# T4 sequence (P12314 16-292 limits assumed): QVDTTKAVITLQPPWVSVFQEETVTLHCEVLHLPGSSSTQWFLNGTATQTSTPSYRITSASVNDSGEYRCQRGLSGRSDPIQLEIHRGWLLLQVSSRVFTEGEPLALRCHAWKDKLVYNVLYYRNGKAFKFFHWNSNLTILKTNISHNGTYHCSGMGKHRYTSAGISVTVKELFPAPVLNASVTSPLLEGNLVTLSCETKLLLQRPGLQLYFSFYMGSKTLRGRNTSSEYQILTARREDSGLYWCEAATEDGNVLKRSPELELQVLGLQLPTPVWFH
# Assay: SPR, captured antibody;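 note: antibody captured on a sensor chip, Fcγ receptor flowed over at 25 °C, receptor binding normalized to the captured antibody amount and expressed relative to the reference antibody ×100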
row,relative binding activity,Binder
1,6 % of GpH7-B3/GpL16-k0,B1
2,97 % of GpH7-B3/GpL16-k0,B2
3,95 % of GpH7-B3/GpL16-k0,B3
4,51 % of GpH7-B3/GpL16-k0,B4
5,97 % of GpH7-B3/GpL16-k0,B5
6,94 % of GpH7-B3/GpL16-k0,B6
7,100 % of GpH7-B3/GpL16-k0,B7
8,98 % of GpH7-B3/GpL16-k0,B8
9,88 % of GpH7-B3/GpL16-k0,B9
10,95 % of GpH7-B3/GpL16-k0,B10
11,94 % of GpH7-B3/GpL16-k0,B11
12,57 % of GpH7-B3/GpL16-k0,B12
13,69 % of GpH7-B3/GpL16-k0,B13
14,87 % of GpH7-B3/GpL16-k0,B14

# Biological target: T1, human FcγRIIb
# Assay: SPR, captured antibody;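 note: antibody captured on a sensor chip, Fcγ receptor flowed over at 25 °C, receptor binding normalized to the captured antibody amount and expressed relative to the reference antibody ×100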
row,relative binding activity,Binder
1,-2 % of GpH7-B3/GpL16-k0,B1
2,43 % of GpH7-B3/GpL16-k0,B2
3,18 % of GpH7-B3/GpL16-k0,B3
4,-3 % of GpH7-B3/GpL16-k0,B4
5,18 % of GpH7-B3/GpL16-k0,B5
6,34 % of GpH7-B3/GpL16-k0,B7
7,34 % of GpH7-B3/GpL16-k0,B8
8,62 % of GpH7-B3/GpL16-k0,B9
9,40 % of GpH7-B3/GpL16-k0,B10
10,29 % of GpH7-B3/GpL16-k0,B11
11,0 % of GpH7-B3/GpL16-k0,B12
12,39 % of GpH7-B3/GpL16-k0,B14

# Biological target: T2, human FcγRIIa(H)
# Assay: SPR, captured antibody;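 note: antibody captured on a sensor chip, Fcγ receptor flowed over at 25 °C, receptor binding normalized to the captured antibody amount and expressed relative to the reference antibody ×100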
row,relative binding activity,Binder
1,-1 % of GpH7-B3/GpL16-k0,B1
2,17 % of GpH7-B3/GpL16-k0,B2
3,16 % of GpH7-B3/GpL16-k0,B3
4,-2 % of GpH7-B3/GpL16-k0,B4
5,26 % of GpH7-B3/GpL16-k0,B5
6,8 % of GpH7-B3/GpL16-k0,B6
7,21 % of GpH7-B3/GpL16-k0,B7
8,16 % of GpH7-B3/GpL16-k0,B8
9,51 % of GpH7-B3/GpL16-k0,B9
10,55 % of GpH7-B3/GpL16-k0,B10
11,47 % of GpH7-B3/GpL16-k0,B11
12,0 % of GpH7-B3/GpL16-k0,B12
13,17 % of GpH7-B3/GpL16-k0,B13
14,25 % of GpH7-B3/GpL16-k0,B14

# Biological target: T3, human FcγRIIa(R)
# Assay: SPR, captured antibody;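 note: antibody captured on a sensor chip, Fcγ receptor flowed over at 25 °C, receptor binding normalized to the captured antibody amount and expressed relative to the reference antibody ×100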
row,relative binding activity,Binder
1,-2 % of GpH7-B3/GpL16-k0,B1
2,46 % of GpH7-B3/GpL16-k0,B2
3,14 % of GpH7-B3/GpL16-k0,B3
4,-11 % of GpH7-B3/GpL16-k0,B4
5,17 % of GpH7-B3/GpL16-k0,B5
6,76 % of GpH7-B3/GpL16-k0,B6
7,34 % of GpH7-B3/GpL16-k0,B7
8,31 % of GpH7-B3/GpL16-k0,B8
9,59 % of GpH7-B3/GpL16-k0,B9
10,38 % of GpH7-B3/GpL16-k0,B10
11,34 % of GpH7-B3/GpL16-k0,B11
12,-8 % of GpH7-B3/GpL16-k0,B12
13,19 % of GpH7-B3/GpL16-k0,B13
14,42 % of GpH7-B3/GpL16-k0,B14

# From US20200199241A1 (Chugai, published 2020)
